In this assay the target is TNF receptor-associated factor 2 (TRAF2) (human (endogenous in HEK293)) (UniProt Q12933).
Chain of UniProt Q12933 (Q12933 whole entry, the tested form may be a part): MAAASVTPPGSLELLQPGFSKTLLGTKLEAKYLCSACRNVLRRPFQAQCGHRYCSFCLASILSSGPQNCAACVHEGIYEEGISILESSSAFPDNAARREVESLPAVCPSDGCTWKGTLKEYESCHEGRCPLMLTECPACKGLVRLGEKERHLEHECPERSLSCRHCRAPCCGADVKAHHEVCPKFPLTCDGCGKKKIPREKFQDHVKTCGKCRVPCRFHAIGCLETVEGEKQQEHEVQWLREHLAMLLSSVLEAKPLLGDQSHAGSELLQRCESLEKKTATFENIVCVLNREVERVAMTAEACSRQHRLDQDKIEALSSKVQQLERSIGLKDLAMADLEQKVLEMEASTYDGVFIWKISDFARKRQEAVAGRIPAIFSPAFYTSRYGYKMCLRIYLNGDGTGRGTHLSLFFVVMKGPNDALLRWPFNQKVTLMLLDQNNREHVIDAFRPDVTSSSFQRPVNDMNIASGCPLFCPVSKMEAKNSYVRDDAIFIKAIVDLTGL
“GRA15II-51-550 with the deletion SQQE430-433, fused to GFP (from UniProt A0A125YGQ9 51-550) (domain or fragment)” gave an NF-κB luciferase reporter activity in transiently transfected HEK293 reporter cells, decrease compared to full-length GRA15II-51–550 of 60%.
The substance “GRA15II-51-550 with the deletion AAEE160-163, fused to GFP (from UniProt A0A125YGQ9 51-550) (domain or fragment)” yielded an NF-κB luciferase reporter activity in transiently transfected HEK293 reporter cells, decrease compared to full-length GRA15II-51–550 of 60%.
For the substance “GRA15II-51-550 with the deletions AAEE160-163/SQQE430-433, fused to GFP (from UniProt A0A125YGQ9 51-550) (domain or fragment)”, the NF-κB luciferase reporter activity in transiently transfected HEK293 reporter cells, decrease compared to full-length GRA15II-51–550 worked out at 75%.

Values taken from publication PMC6635525.
